Laboratory results taken from patent EP4578874A1 (SunRock Biopharma S.L., dated 2025).

T1: human CCR9 (C-C chemokine receptor type 9) (human, UniProt P51686 1-369)
T1 construct: also called huCCR9; hCCR9
T1 sequence: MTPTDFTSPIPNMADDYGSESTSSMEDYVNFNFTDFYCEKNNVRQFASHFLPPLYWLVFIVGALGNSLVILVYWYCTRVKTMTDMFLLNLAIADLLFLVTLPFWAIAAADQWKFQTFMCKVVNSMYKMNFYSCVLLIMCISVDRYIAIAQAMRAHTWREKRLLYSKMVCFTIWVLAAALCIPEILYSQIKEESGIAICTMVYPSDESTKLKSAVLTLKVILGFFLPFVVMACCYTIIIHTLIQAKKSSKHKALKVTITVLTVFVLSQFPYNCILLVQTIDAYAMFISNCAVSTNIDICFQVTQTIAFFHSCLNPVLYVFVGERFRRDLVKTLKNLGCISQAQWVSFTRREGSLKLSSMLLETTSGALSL

T2: N-terminal 6 (SPIPNMADDYG) (human)
T2 construct: also called peptide N-terminal 6
T2 peptide: SPIPNMADDYG

T3: CCR9 N-terminal peptide 1 (TPTDFTSPIPNMADDYGSESTSS) (human, biotinylated in the ELISA of Example 2 (site not stated))
T3 construct: Biotin is stated for the ELISA; also called N-terminal 1; biotinylated peptide from the N-terminal region of huCCR9
T3 peptide: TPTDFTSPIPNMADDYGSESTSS

T4: hCCR9 peptide P11A-N12A (human)
T4 peptide: TDFTSPIAAMADDYGSEST

T5: hCCR9 peptide M13A-A14G (human)
T5 peptide: TDFTSPIPNAGDDYGSEST

T6: hCCR9 peptide N12A-M13A (human)
T6 peptide: TDFTSPIPAAADDYGSEST

T7: hCCR9 peptide D15A-D16A (human)
T7 peptide: TDFTSPIPNMAAAYGSEST

T8: hCCR9 peptide D16A-Y17A (human)
T8 peptide: TDFTSPIPNMADAAGSEST


What was measured:
[1] = target: T1, human CCR9 (C-C chemokine receptor type …); assay: flow cytometry on MOLT-4 cells; antibody incubated 4 days at 40°C
[2] = target: T1, human CCR9 (C-C chemokine receptor type …); assay: flow cytometry on CCR9-expressing MOLT-4 cells, PE anti-human Fc, mean ± SD, n=3
[3] = target: T2, N-terminal 6 (SPIPNMADDYG); assay: peptide inhibition: 1 µg/mL antibody pre-incubated with 100 µg/mL peptide, then binding to MOLT-4 cells by flow cytometry
[4] = target: T1, human CCR9 (C-C chemokine receptor type …); assay: cell-based or functional assay
[5] = target: T1, human CCR9 (C-C chemokine receptor type …); assay: flow cytometry on MOLT-4 cells, unlabeled antibody, n=1
[6] = target: T1, human CCR9 (C-C chemokine receptor type …); assay: flow cytometry on MOLT-4 cells; antibody incubated 4 days at 23°C
[7] = target: T1, human CCR9 (C-C chemokine receptor type …); assay: flow cytometry on huCCR9-expressing HEK293 cells, PE anti-human Fc, mean ± SD, n=3
[8] = target: T1, human CCR9 (C-C chemokine receptor type …); assay: flow cytometry on MOLT-4 cells; antibody kept 4 days at 4°C (control)
[9] = target: T3, CCR9 N-terminal peptide 1 …; assay: ELISA, plate coated with biotinylated CCR9 N-terminal peptide 1, anti-human Fc detection, n=2
[10] = target: T1, human CCR9 (C-C chemokine receptor type …); assay: flow cytometry on MOLT-4 cells, pHrodo-labeled antibody, n=1
[11] = target: T1, human CCR9 (C-C chemokine receptor type …); assay: screen of murine hybridoma antibodies for affinity to CCR9 (ELISA, then flow cytometry); format not detailed
hCCR9 peptide P11A-N12A [12] = target: T4, hCCR9 peptide P11A-N12A; assay: 2 x Ala-scan with substituted hCCR9 peptides (Fig. 9A)
hCCR9 peptide M13A-A14G [13] = target: T5, hCCR9 peptide M13A-A14G; assay: as above
hCCR9 peptide N12A-M13A [14] = target: T6, hCCR9 peptide N12A-M13A; assay: as above
hCCR9 peptide D15A-D16A [15] = target: T7, hCCR9 peptide D15A-D16A; assay: as above
hCCR9 peptide D16A-Y17A [16] = target: T8, hCCR9 peptide D16A-Y17A; assay: as above
hCCR9 peptide P11A-N12A [17] = target: T4, hCCR9 peptide P11A-N12A; assay: 2 x Ala-scan with substituted hCCR9 peptides (Fig. 9B)
hCCR9 peptide M13A-A14G [18] = target: T5, hCCR9 peptide M13A-A14G; assay: as above
hCCR9 peptide N12A-M13A [19] = target: T6, hCCR9 peptide N12A-M13A; assay: as above
hCCR9 peptide D15A-D16A [20] = target: T7, hCCR9 peptide D15A-D16A; assay: as above
hCCR9 peptide D16A-Y17A [21] = target: T8, hCCR9 peptide D16A-Y17A; assay: as above

Binder | EC50 [1] [nM] | EC50 [2] [nM] | EC50 [5] [nM] | EC50 [6] [nM] | EC50 [7] [nM] | EC50 [8] [nM] | EC50 [9] [nM] | EC50 [10] [nM] | EC50 of cytotoxicity (ADCC, specific lysis of CFSE-stained MOLT-4 cells), PBMC batch HN#1 [4] [nM] | EC50 of cytotoxicity (ADCC, specific lysis of CFSE-stained MOLT-4 cells), PBMC batch HN#2 [4] [nM] | also measured
huC9Mab-16-VL2 (antibody, V domains shown, Humanized IgG made in HEK293-6E cells) VH: EVQLVESGGGLVKPGGSLRLSCAASGFTFSDYWMNWVRQAPGKGLEWVGEIRSKSKNYATHYEESVRGRFTISRDDSKNTLYLQMNSLKTEDTAVYYCMFFYSPYWGQGTLVTVSS VL: DVVMTQSPSSLSASVGDRVTITCRSSQSLVHSNGITFLHWYQQKPGKAPKLLIYKVSNRFSGVPSRFSGSGSGTDFTLTISSLQPEDFATYYCSQTTHVPWTFGGGTKVEIK | 0.25 | 0.24 | 0.27 | 0.4 | 0.1 | 0.4 | 0.546 | – | 0.005 | 0.01 | binding result [3]: binds
IAb01 (antibody, V domains shown, Murine antibody) VH: EVKVEESGGGLVQPGGSMKLSCVVSGLTFSNFWMTWVRQSPEKGLEWVAEIRLKSNNYATHYAESVKGRFTISRDDSRSSVFLQMNNLRAEDTGIYYCTTDGWFAFWGQGTLVTVSA VL: QIVLTQSPTIMSASPGEKVTITCSASSSVSYMHWFQQKPGTSPKLWIYSTSNLASGVPARFSGSGSGTSYSLTISRMEAEDAATYYCQQRSSYPFTFGSGTKLEIKR | – | – | – | – | – | – | – | – | – | – | binding result [11]: binds
IAb02 (antibody, V domains shown, Murine antibody) VH: EVKVEESGGGLVQPGGSMKLSCAASGFIFSNFWMNWVRQSPEKGLEWIAEIRLKSNNYATHYAESVKGRFTISRDDSKSSVYLQMNNLRAEDTGIYYCATDGWFAFWGQGTLVTVSA VL: DVVMTQTPLSLPVSLGDQASISCRSSQSLVHSNGNTYLQWHLQKPGQSPKFLIYKVSNRFSGVPDRFSGSGSGTDFTLKISRVEAEDLGVYFCSQSTHVPRTFGGGTKLEIKR | – | – | – | – | – | – | – | – | – | – | binding result [11]: binds
SRB1 (antibody, V domains shown, Detected with anti-human Fc, so it has a human Fc; also called humanised version of the antibody 92R; positive control) VH: EVQLVESGGGLVKPGGSLRLSCAASGFTFSKFWMNWVRQAPGKGLEWVGEIRLKSNNYATHYAESVKGRFTISRDDSKNTLYLQMNSLKTEDTAVYYCTSDGWFAYWGQGTLVTVSS VL: DVQMTQSPSSLSASVGDRVTITCRSSQSLVHSNGNTYLNWYQQKPGKAPKLLIYKVSNRFSGVPSRFSGSGSGTDFTLTISSLQPEDFATYYCSQSTHFPRTFGGGTKVEIKR | 0.05 | 0.04 | 0.07 | 0.02 | 0.04 | 0.05 | 19.2 | – | 0.0008 | 0.003 | –
SRB1 pHrodo (antibody, V domains shown, pHrodo fluorophore label (sites not given), also called pHrodo-labeled SRB1) VH: EVQLVESGGGLVKPGGSLRLSCAASGFTFSKFWMNWVRQAPGKGLEWVGEIRLKSNNYATHYAESVKGRFTISRDDSKNTLYLQMNSLKTEDTAVYYCTSDGWFAYWGQGTLVTVSS VL: DVQMTQSPSSLSASVGDRVTITCRSSQSLVHSNGNTYLNWYQQKPGKAPKLLIYKVSNRFSGVPSRFSGSGSGTDFTLTISSLQPEDFATYYCSQSTHFPRTFGGGTKVEIKR | – | – | – | – | – | – | – | 0.08 | – | – | –
C9Mab-16 (antibody, V domains shown, Murine parental antibody from hybridoma; also called C9M16; clone 16) VH: EVKLEESGGGLVLPGGSMKLSCVASGFTFSDYWMNWVRQSPEKGLEWVAEIRSKSKNYATHYEESVRGRCTISRDDSKSSVYLQMNNLRAEDTGIYFCMFFYSPYWGQGTLVTVSA VL: DVVMTQTPLSLPVSLGDQASISCRSSQSLVHSNGITFLHWYLQKPGQSPKLLIYKVSNRFSGVPDRFSGSGSGTDFTLKISRVEAEDLGVYFCSQTTHVPWTFGGGTKLEIKR | – | – | – | – | – | – | – | – | – | – | binding result (hCCR9 peptide P11A-N12A [12]): no binding; binding result (hCCR9 peptide M13A-A14G [13]): no binding; binding result (hCCR9 peptide N12A-M13A [14]): no binding; binding result (hCCR9 peptide D15A-D16A [15]): no binding; binding result (hCCR9 peptide D16A-Y17A [16]): no binding
C9Mab-19 (antibody, V domains shown, Murine parental antibody from hybridoma; also called C9M19; clone 19) VH: EVKLEESGGGLVQPGGSMKLSCVASGFTFSNYWMDWVRQSPEKGLEWVAEIRSKSNNYATHYAESMKGRFTISRDDSKSSVYLQMINLRTEDTGIYYCAFYYSPYWGQGTLVTVSA VL: DVVMTQTPLSLPVSLGDQASISCRSSQSLLHSNGNTFLHWYLQKPGQSPKLLIYKVSNRFSGVPDRFSGSGSGTDFTLKVSRVEAEDLGVYFCSQTTHLPWTFGGGTKLEIKR | – | – | – | – | – | – | – | – | – | – | binding result (hCCR9 peptide P11A-N12A [17]): no binding; binding result (hCCR9 peptide M13A-A14G [18]): no binding; binding result (hCCR9 peptide N12A-M13A [19]): no binding; binding result (hCCR9 peptide D15A-D16A [20]): no binding; binding result (hCCR9 peptide D16A-Y17A [21]): no binding

Now from value to binder, other results behind:

EC50 [1] [nM] | EC50 [2] [nM] | EC50 [5] [nM] | EC50 [6] [nM] | EC50 [7] [nM] | EC50 [8] [nM] | EC50 [9] [nM] | EC50 [10] [nM] | Binder | EC50 of cytotoxicity (ADCC, specific lysis of CFSE-stained MOLT-4 cells), PBMC batch HN#1 [4] [nM] | EC50 of cytotoxicity (ADCC, specific lysis of CFSE-stained MOLT-4 cells), PBMC batch HN#2 [4] [nM] | also measured
– | – | – | – | – | – | – | 0.51 | huC9Mab16-VL2 pHrodo (antibody, V domains shown, pHrodo fluorophore label (sites not given), also called pHrodo-labeled huC9Mab16-VL2) VH: EVQLVESGGGLVKPGGSLRLSCAASGFTFSDYWMNWVRQAPGKGLEWVGEIRSKSKNYATHYEESVRGRFTISRDDSKNTLYLQMNSLKTEDTAVYYCMFFYSPYWGQGTLVTVSS VL: DVVMTQSPSSLSASVGDRVTITCRSSQSLVHSNGITFLHWYQQKPGKAPKLLIYKVSNRFSGVPSRFSGSGSGTDFTLTISSLQPEDFATYYCSQTTHVPWTFGGGTKVEIK | – | – | –
2 | 0.59 | 0.6 | 2.04 | 0.92 | 1.86 | 14.1 | – | huC9Mab-19-VL2 (antibody, V domains shown, Humanized IgG made in HEK293-6E cells) VH: EVQLVESGGGLVKPGGSLRLSCAASGFTFSNYWMDWVRQAPGKGLEWVGEIRSKSNNYATHYAESMKGRFTISRDDSKNTLYLQMNSLKTEDTAVYYCAFYYSPYWGQGTLVTVSS VL: DVVMTQSPSSLSASVGDRVTITCRSSQSLLHSNGNTFLHWYQQKPGKAPKLLIYKVSNRFSGVPSRFSGSGSGTDFTLTISSLQPEDFATYYCSQTTHLPWTFGGGTKVEIK | 0.23 | 0.06 | binding result [3]: binds
– | – | – | – | – | – | – | 2.05 | huC9Mab19-VL2 pHrodo (antibody, V domains shown, pHrodo fluorophore label (sites not given), also called pHrodo-labeled huC9Mab19-VL2) VH: EVQLVESGGGLVKPGGSLRLSCAASGFTFSNYWMDWVRQAPGKGLEWVGEIRSKSNNYATHYAESMKGRFTISRDDSKNTLYLQMNSLKTEDTAVYYCAFYYSPYWGQGTLVTVSS VL: DVVMTQSPSSLSASVGDRVTITCRSSQSLLHSNGNTFLHWYQQKPGKAPKLLIYKVSNRFSGVPSRFSGSGSGTDFTLTISSLQPEDFATYYCSQTTHLPWTFGGGTKVEIK | – | – | –
